Assay results as given in patent US6730828B1, “Isolated nucleic acids encoding a wheat glutathione transferase, plants transformed therewith and methods of use thereof” (Aventis Agriculture Limited, priority 1997, dated 2004).

Experiments:
wheat shoots = test: Enhancement of GST isoenzyme expression in wheat shoots by safener fenchlorazole-ethyl; type: in vivo, Triticum aestivum L. var. Hunter; settings: for % enhancement by safener: fenchlorazole-ethyl treated (safened) versus unsafened wheat shoots; for Effect of safener fenchlorazole-ethyl on expression: wheat shoots, in words
Description: Wheat seeds (Triticum aestivum L. var. Hunter) were imbibed in a 10 mg/l solution of the herbicide safener fenchlorazole-ethyl and then grown in an environmental growth room with further root-applied watering treatments of 5 mg/l fenchlorazole ethyl applied as required. At 10 days after imbibing, the shoot tissue was harvested and extracted prior to precipitation of the protein with ammonium sulphate (80% saturation). The total protein extract was then applied in the presence of 1 M ammonium sulphate to a phenyl-Sepharose column. The bound GSTs were then recovered, firstly by reducing the ammonium sulphate concentration to 0 M to yield the polar GST fraction, which represented 61% of the recovered activity toward 1-chloro-2,4-dinitrobenzene (CDNB). The remaining 39% of the GST activity was then recovered by adding ethylene glycol (50% v/v) to the running buffer to yield the hydrophobic GST fraction. […] The component polypeptides in the active fractions were then analysed by silver staining after resolution by sodium dodecyl sulphate polyacrylamide gel electrophoresis (SDS-PAGE). It was concluded that in fenchlorazole-ethyl-treated wheat the polar GSTs were composed of 25 kDa and 26 kDa polypeptides, while the hydrophobic fraction contained 25 kDa, 26 kDa and 24 kDa polypeptides. Further analysis by reversed-phase HPLC confirmed the subunit compositions (FIG. 2). Based on the combined analyses by Q-sepharose, HPLC and SDS-PAGE these GST polypeptides were named as described in Table 1, which also contains details of how these subunits associate together to form the active dimers found in plants and the relative abundance of these subunits in extracts from unsafened and fenchlorazole-ethyl treated ([…]) plants.

GST activity toward CDNB = type: biochemical; settings: isoenzymes purified from fenchlorazole-ethyl-treated wheat shoots
Description: (§1) The purified isoenzymes were assayed for GST activity toward herbicides using the HPLC-based assays described by Edwards R. and Cole D. J. (Pesticide Biochemistry and Physiology Vol. 54, pp96-104 (1996)) and the results are presented in Table 2. […] These isoenzymes had additional activities as glutathione peroxidases able to reduce linoleic acid hydroperoxide, a major reaction product formed during membrane peroxidation in plants (Williamson and Beverly. J. Cereal Sci. 8, 1988, 155-163).
To confirm that TaGST1 encoded a GST, it was expressed as a fusion protein with beta-galactosidase using the pBluescript plasmid in E. coli strain SOLR. TaGST1 clones were inoculated into LB liquid medium and were grown overnight at 37/C on all orbital shaker in the presence of IPTG. Bacteria were then pelleted by centrifugation, lysed by sonication and assayed for GST activity toward CDNB and analysed by SDS-PAGE and Western blotting using the anti-TaGSTI-I serum. With all six TaGST1 clones, GST activity toward CDNB could be determined in the crude extracts in the range 30-50 nkat/mg crude lysate.
(§2) To assay the recombinant fusion proteins for GST activity, the E. coli were grown in the presence of IPTG and then pelleted by centrifugation. The bacteria were then lysed by sonication and the protein precipitated using 80% ammonium sulphate. After resuspension and desalting, GSTs were purified by affinity chromatography. The WIC 3 fusion protein was purified using sulphobromophthalein-S-glutathione affinity chromatography (Mozer et al. Biochem. 22, 1983, 1068-1072) while the other WIC fusion proteins were purified using glutathione-agarose (Mannervik and Guthenberg. Methods Enzymol. 77 1981, 231-235).The purified enzymes were then assayed for GST activities toward herbicides (Table 3) and GST activities toward non-herbicide substrates and glutathione peroxidase activities toward organic hydroperoxides (Table 4).
A polyclonal antiserum was raised in a rabbit to a mixture of TaGST1-2 and TaGST1-3. When tested against crude extracts from safener-treated wheat shoots the antiserum recognised both the 25 kDa TaGST1 subunit and the 26 kDa safener-inducible TaGST2 and TaGST3 subunits. The antiserum was then used in conjunction with the antiserum raised to TaGST1-1 to immuno screen the cDNA library prepared from fenchlorazole ethyl treated wheat shoots as described in example 1. Duplicate lifts were taken from the plated out library and the first blot screened with the antiserum raised against TaGST1-2 and TaGST1-3. The second blot was screened with the antiserum raised to TaGST1-1. Five plaques were identified from the first blot which were absent from the second blot corresponding to cDNAs encoding TaGST2 or TaGST3 like polypeptides and theses clones were purified and the respective plasmids sequenced. […] The other three clones ICC. ICP and ICV had identical DNA sequences (SEQ ID No. 17) and predicted amino acid sequence (SEQ ID No. 18). GST ICJ was sub-cloned into the pET 11a vector after using PCR to introduce a Nde 1 restriction site into the translation start site, using the primer 5′ AGGTAGTTACATATGGCCGGAGGA 3′ (SEQ ID No. 19) in the amplification. following sub-cloning, the sequence of GST ICJ was re-checked to ensure no PCR induced errors had been introduced. The recombinant GST ICJ was then expressed in E. coli and purified by S-hexylglutathione affinity chromatography. The purified GST ICJ was assayed for activities as a GST (Table 3) and as a glutathione peroxidase (Table 4). […] GST ICV was finally expressed as the respective beta-galactosidase fusion protein using the Bluescript plasmid and assayed for GST activity (Table 3 ) and glutathione peroxidase activity (Table 4) in crude bacterial lysates. […]

[1] = GST activity toward herbicide fenoxaprop-ethyl (HPLC-based assay); type: biochemical; settings: isoenzymes purified from fenchlorazole-ethyl-treated wheat shoots
Description: as §1, §2
(§3) A polyclonal antiserum was raised in a rabbit to a mixture of TaGST1-2 and TaGST1-3. When tested against crude extracts from safener-treated wheat shoots the antiserum recognised both the 25 kDa TaGST1 subunit and the 26 kDa safener-inducible TaGST2 and TaGST3 subunits. The antiserum was then used in conjunction with the antiserum raised to TaGST1-1 to immuno screen the cDNA library prepared from fenchlorazole ethyl treated wheat shoots as described in example 1. Duplicate lifts were taken from the plated out library and the first blot screened with the antiserum raised against TaGST1-2 and TaGST1-3. The second blot was screened with the antiserum raised to TaGST1-1. Five plaques were identified from the first blot which were absent from the second blot corresponding to cDNAs encoding TaGST2 or TaGST3 like polypeptides and theses clones were purified and the respective plasmids sequenced. […] The other three clones ICC. ICP and ICV had identical DNA sequences (SEQ ID No. 17) and predicted amino acid sequence (SEQ ID No. 18). GST ICJ was sub-cloned into the pET 11a vector after using PCR to introduce a Nde 1 restriction site into the translation start site, using the primer 5′ AGGTAGTTACATATGGCCGGAGGA 3′ (SEQ ID No. 19) in the amplification. following sub-cloning, the sequence of GST ICJ was re-checked to ensure no PCR induced errors had been introduced. The recombinant GST ICJ was then expressed in E. coli and purified by S-hexylglutathione affinity chromatography. The purified GST ICJ was assayed for activities as a GST (Table 3) and as a glutathione peroxidase (Table 4). […] GST ICV was finally expressed as the respective beta-galactosidase fusion protein using the Bluescript plasmid and assayed for GST activity (Table 3 ) and glutathione peroxidase activity (Table 4) in crude bacterial lysates. The specific activity of GST ICV toward these substrates was then calculated by I) subtracting the low levels of GST and GPOX activity present due the endogenous activities in the E. coli and ii) determining the proportion of protein in the lysate present as recombinant GST ICV from SDS-PAGE analysis, by densitometry analysis of polypeptides stained with Coomassie blue.

[2] = GST activity toward herbicide metolachlor (HPLC-based assay); type: biochemical; settings: isoenzymes purified from fenchlorazole-ethyl-treated wheat shoots
Description: as §1, §2, §3

[3] = GST activity toward herbicide fluorodifen (HPLC-based assay); type: biochemical; settings: isoenzymes purified from fenchlorazole-ethyl-treated wheat shoots
Description: as §1, §2, §3

Molecule	% enhancement by safener (wheat shoots)	Effect of safener fenchlorazole-ethyl on expression (wheat shoots)	GST activity toward CDNB (GST activity toward CDNB)	GST activity toward fenoxaprop-ethyl [1]	GST activity toward metolachlor [2]	GST activity toward fluorodifen [3]
TaGST1-2: wheat GST isoenzyme, heterodimer of TaGST1 and 26 kDa TaGST2 subunits (SEQ ID No. 2/SEQ ID No. 16) (protein, heterodimer; Triticum aestivum L.) chain 1: MAGEKGLVLLDFWVSPFGQRVRIALAEKGLPYEYAEEDLMAGKSDRLLRANPVHKKIPVLLHDGRAVNESLIILQYLEEAFPDAPALLPSDPYARAQARFWADYVDKKVYDCGSRLWKLKGEPQAQARAEMLDILKTLDGALGDKPFFGGDKFGFVDAAFAPFTAWFHSYERYGEFSLPEVAPKIAAWAKRCGERESVAKSLYSPDKVYDFIGLLKKKYGIE chain 2: MAGDGELKLLGVWTSPFVIRVRVVLNLKSLPYEYVEESLGSKSALLLGSNPVHQSVPVLLHGGRPVNESQVIVQYIDEVWAGAGPSVLPADPYERATARFWAAYVDDKVGSAWTGMLFSCKTEEERAEAVSRAVAALETLEGAFAECSKGKAFFGGDAIGFVDVVLGGYLGWFGAIDKIIGRRLIDPARTPLLARWEERFRAADAAKGVVPDDADKMLEFLPTVLAWIAGKAK	Only	only observed following treatment with the safener	1,441 nkat.mg^−1	0.61 nkat.mg^−1	0.25 nkat.mg^−1	0.38 nkat.mg^−1
TaGST1-3: wheat GST isoenzyme, heterodimer of TaGST1 and 26 kDa TaGST3 subunits (SEQ ID No. 2/SEQ ID No. 18) (protein, heterodimer; Triticum aestivum L.) chain 1: MAGEKGLVLLDFWVSPFGQRVRIALAEKGLPYEYAEEDLMAGKSDRLLRANPVHKKIPVLLHDGRAVNESLIILQYLEEAFPDAPALLPSDPYARAQARFWADYVDKKVYDCGSRLWKLKGEPQAQARAEMLDILKTLDGALGDKPFFGGDKFGFVDAAFAPFTAWFHSYERYGEFSLPEVAPKIAAWAKRCGERESVAKSLYSPDKVYDFIGLLKKKYGIE chain 2: MAGGEELKLLGWWAPGVSPYVLRAQMALAVKGLSYDYLPEDRWSTSDLLIASNPVYKKVPVLIHNGRPVCESLLILEYLDDAVGLAGNGKPILPADPYSRAVARFWAAYVNDKLFPSCTGILKTTKQEERAGKMEETLSGLRHLEAVMAECSEGEAEAPFFGGDAIGFLDIALGCYLPWFEAAGRLAGLGPIIDPARTPKLAAWAERFSVAEPIKALLPGVDKLEEYITTALYPKWNIAVTGN	Only	only observed following treatment with the safener	1,700 nkat.mg^−1	0.44 nkat.mg^−1	0.28 nkat.mg^−1	0.38 nkat.mg^−1
